The results in this text go back to the DeepSol protein solubility set.

A short description of this series: soluble on expression in E. coli; label from the status in PepcDB or PDB records.
Regarding “MTIYNINFGIGWASSGVEYAQAYRAKLLRRTNQDTKFVFLDFIQSENIQTLTQNIGFKDQEVIWLYQYFSDISLAPTTYTLDDIERELGHDISFRERNGKIVRLYFNGKSSFVTCYLQNEQKDIVDRAEFVINSMLVRKDFYSYTRIFSEYYAPADNKAKLYMRQFYNQDGSIAYNEYIDGDSSIYVFEDAVLYNKTEFIAYFLQRLNLTRDDIVILDRASDIGQAVLQHKGDSKVGVVIHADHYSNNMMSEQHILWNNYYEYQFSKAKYIDFFITATDIQNHMVCRQFEQYQGYRPRVYTIPVGSIDALSYPTLSRKPYAMISASRLANEKHIDWLVKAVIVAKRQVPELTFDIYGEGSEKTRLRKIIDTHRAQDYIRLLGHVKLDEIYNDYELFLSASTSEGFGLTLMEAVGSGLGMIGLNVNYGNPTFIRDGENGYLVPFDTDEDSVDDVIAKLAHAIVMYFNNGPQTPHDISYEVAQQFMTQDIILKWETLVQEVLHD”, the “soluble on expression in E. coli” value is “not soluble”.
Next, “MGSDKIHHHHHHMAKQVVKRTIIGSITNHQQVQDDLDSLGFAASKLWNVARWTTGRIWNETGHIPEDGELKSYLKSHERYSDLHSQSSQRVLEELSEAFTGWYGKRRNGDSKANPPAYRKHNDEHPRSTLTFKGAGFKLDTTNGRLRLSKGENLKEYWSDFVLCDIQIRPDVDLSAIESVQQVRAVWNKQRNEWELHVVCNVTVDIPENSAEKTVGIDLGICNFAALAFENQESELYPLNCLKQDDYYYSKHIARCDDSSSEEATRLHAKKSNRRTHYFHTLSKHIVERCVDENVGVIAIGDLSGIREDEDGEMKDWGKHGNLDLHSWAFDRFTDMLEYKAEEVGISVKRVSEENTSKSCSSCGCERDTNRVERGLYVCNECELVANADVNGAENIRQQVSPNPRSEDRSNGWLAQPSTLLFDKETGVFAPQEQVVS”: “not soluble”; “MSLTKYIFVTGGVVSSIGKGIVAASLGRLLKNRGLKVTIQKFDPYINIDPGTMSPYQHGEVYVTDDGAETDLDLGHYERFIDINLNKYSNVTTGKIYSEVLRKERKGEYLGATVQVIPHITDALKEKIKRAATTTDSDVIITEVGGTVGDIESLPFLEALRQMKADVGADNVMYIHTTLLPYLKAAGEMKTKPTQHSVKELRGLGIQPNMLVIRTEQPAGQGIKNKLAQFCDVAPEAVIESLDVDHLYQIPLNLQAQNMDQIVCDHLKLDVPVADMTEWSAMVDKVMNLKKKTKIALVGKYVELPDAYLSVVEALKHSGYVNDTAIDLNWINANEVTPETVTDLLGDADGIIVPGGFGHRGTEGKIEAIRYARENDVPMLGICLGMQLTCVEYARHVLNLEGANSAELDPDTKYPVIDIMRDQIDIEDMGGTLRLGLYPCKLKSGSKTASAYSNQEVVQRRHRHRYEFNNAFRQQFEEAGFVFSGVSPDNRLVEVVELSDKKFFVAAQYHPELQSRPNRPEELYTAFITAAVENSQAHEGHHHHHH”: “soluble”; “MAHHHHHHMEAKLSSALRTCDKCRTYADLCRTFEAKVSPIVEQALQSPLVKAPRDHTTPDECSPRVAELREALCTRLGADKATPAEDDVWFLIYRTVSNFVERQQRKRSRDQDGTSLSTLVTNCFVLLCTRTLPQLDHMKLRWGFLKKERAALESSDAYVHSNASERRKLQLNATSVLSVFSERAHKHSFTFVWMLCVEKAGEAALHVHLLHRVGSVVLPYLTNPLVLADYLTGCFSSGGIISILSLQGLFLLMLDHGLEYPNYYEQLYSLLTPDVFASRYRYELFRLLDLSMTSLRVPSYIAASVIKRVAQVSLMAPAPTLYFSLPFLRKVLQSHPNCLALIHRSSREAVIPDDMADQDTDTVTAQSAKAQAMRDTAALFDGRDPFDDRAKLLETHALSSTLWELTALERHFMPVVPLMVSAFSSTAEDKTPLRYEKSYGRLFTAEVTRAIDCHNLPTIAYEAPSEADPTDLLSL”: “soluble”.
For the sequence “MGSDKIHHHHHHMEDKLISRYDILVNRYKELVSEKLSRKDFIEYNEILFSAHSCAIEGNSFSVDETRTLKEKGLGMIPKGKTLLEAFEILDHFQAYEYLLKNLDRPLTEELLKETHRLLTEHTLSYKTQYDEIPSNPGEYTTVDMCAGDTIFGDHEQLIKQVPRLLQSTQQVLDSGKIHPMIIAARFHGFYEYLHPFRDGNGRLGRLMSNFILLKKEQPLLIIPGSQREEYITALKYIKKERTDEFLIDFFFRTSIKRMEQEIEEKKNLTENFIRGMEFVRNVKSSNDDISEI”, the “soluble on expression in E. coli” value was “not soluble”.
Next, “MGYNETIYHKPFIKINMPDVLGKPDATQIPDDVWLDILINYLQPQDIVNLSEINNRLSRLFKTQHTQSEQLNQKKTLGILKVFAGYSSTFLFARLNGKQRLFKTRNWSAADSDNINPILMPISLPENISVIESIQSTYKHTVVVGRDKHDQIIVATNKINQDYAKQETSHNQLIPLPLRDINISLVSAGNEEDYILNPIFSFPATQQGNCILNCIK”: “not soluble”.
The same measure for “MTFYFYFVINMEKVAIYIIGDIVLAENTGKALKKWRNLFNIQQIELAKYLNVSPSVISDYEVGRRKNPGVNIIKKYVLALIEIDKEKGGQTIKALKRILDKSPSMKAILSIKEYENPITLNEFVNIIDGEIAVGDNSDTPIYGHTVVDSIKAILEMTGDDFYHLYGWTTERALIFTNVSTGRSPMVAVRVSIMKPRVVVLQGINKDKIDSLALKLAEIDNIPLITTHLDTKELIKRLNEIK”: “not soluble”; for “MIKRGFPAVLDENTEILILGSLPSDESIRKQQYYGNPGNDFWRLVGHAIGENLQDMAYEKKLKTLKHNRIGLWDVFKAGSREGSQDSKIGDEEINDFSGLKEMVPKLRLICFNGRKAGEYEPLLRGMGYETKVLPSSSGANRRFSKNRESEWEAVFRHLEHHHHHH”: “soluble”.
With “MGELNKSARQIVEAVGGAENIAAATHCVTRLRFALIDESKVDQEMLDQIDVVKGSFSTNGQFQVVIGQGTVNKVYAELVKETGIGESTKDEVKKASEKNMNPLQRAVKTLADI”, the “soluble on expression in E. coli” value is on record as “soluble”.
The same measure for “MSLSTFPTALAVAVSVPSSLTPQDFSWRKFKLKRNVKISRNFEFAISCSGDRAASIGFDVPFPKDYTELLQQVFILFAFSPLKIGGWGSRNRGGITREIKAKEATELALKDNRQLMEIEFPTAGLGSVPGDGEGGIEMTGSIQLIREFCDLLVIPEKATKTRIFFPEANEVKFARQSIFGGASFKLDYLTKPSFFEDFGFTEKVKMADRVKPEDELFIVAYPYFNVNEMLVVEELYQAAVLNTSRKLIIFNGELDRIRSDYPPFFYPKLAALSKTLFPKMETVYYIHNFKGRNGGVLFRCYPGPWKVFRRVGSTNICLHQQESMPSLKEVALDILPSAEGHHHHHH”: “not soluble”; for “MASESSIDEKKKKAQVTQSNINKNTPQQLTDKDLFGNETTLAVSEEDIQAALDGDEFRVPLNSPVILVQSGNRAPETIMQEEMRKYYTVSTFSGIPDRQKPLTCNKNKDKNENEDVASAENMNWMQALRFVAAKGHQKAIIVYQDMLQTGKYDSALKSTVWSDYKNDKLTDAISLRYLVRFTLVDVATGEWATWSPVNYEYKVLPPLPDKNEASTTDMTEQQIMQLKQKTYKAMVKDLVNRYQLEHHHHHH”: “not soluble”.
For “MGSDKIHHHHHHMSSEKLRVAAIDLGTNSFHMVIVEESEEKGIVEIDRVKDMICIGRGSISTKRLDDGAMEAGVATLRNFIVLATQRGVALHNILAFATSAIREADNRDEFIDMVRRETGLKIRVITGKEEAQFIYYGVRNAVTLRDKPDLLFDIGGGSVEFIIADKSKVHLLESRKIGVARMLERFVTTDPVSAHELHLLQQFFAAEMYGGAAEMAHELGVSRAIASSGTAQNIARMIRLGKHADGADVLNQSSFTRQEFESFYRQVIAMDASARRKLTGLDEKRVDLIVPGLILFDTIFRVFGIKDVVISDSALREGMVLHQIALIRGRDGSSQLDIRRQSVMELGYRCNWHKPHSEQVARLALMLFDELHPLHGLKERYRELLEYAAMLHNIGEFISISAHHKHSQYIIMNADLRGFSPTEIDIIGNVARYHRKQPPTERHPLYSQLKPSHRRVVDVLSGILRIANGLERGHRQNVQSITARIDQERIVLEALTQFEPDIELWAACGLKEWLEEVLGKPILIEARVR”, the “soluble on expression in E. coli” value is listed as “not soluble”.
Next, “MHHHHHHIEGRHMLRPGDCEVCISYLGRFYQDLKDRDVTFSPATIEEELIKFCREARGKENRLCYYIGATDDAATKIINEVSKPLAHHIPVEKICEKLKKKDSQICELKYDKQIDLSTVDLKKLRVKELKKILDDWGEMCKGCAEKSDYIRKINELMPKYAPKAASARTDL”: “soluble”.
Take “MSDKISFLPPEPIQLLDEDSTEPELDIDSQQENEGPISASNSNDSTSHSNDCGATITRTRPRRSSSINANFSFQKAHVSDCTIVNGDHGTKFAVWRITVFLEPNLKAFAAKRESYKIQTYKRYSDFVRLRENLLTRIKTAKPEKLNCLQIPHLPPSVQWYSSWKYQEVNLNKDWLAKRQRGLEYFLNHIILNSSLVEMTKDILIQFLEPSKRVA”: the “soluble on expression in E. coli” value is “soluble”.
Next, “YTIYKEPLSLAPFEKIPSPLRRGLGKVAEVFPDGMRGKSLLQRGSMTMEERYYGNARSFNFDQMKRVIPWAKKEWDHREVTAPIYAQSEHMDPVARMQHLDLFTWMRGDILVKADKINMAHSLELRVPFLDKEVFEVAETIPYDLKIANGTTKYALRKAMEQIVPPHVLHRKKLGFPVPMRHWLAGDELFGWAQDTINESMTDQYFDKAAVLAMLNEHKNGVSDHSRRLWTVLAFMIWHGIFVEHRIDPGIEKRDYPVYL”: “not soluble”; “MGSDKIHHHHHHMYKIGIDVGGTNTDAVILDENQQLIHSVKMPTSEDIETGITESLHRVLSETGIDRSKVTHAMLGTTQCTNAIVERKKLAKVGVLRLGYPATASVLPYTAWPEDMVGFLSGKYKLTGGGYEYDGQVLSEINEAEIRETLASWKGEVESVAVVGVFSSLKNDQELAVQKIIEEELGADIPVSISSSVGSVGLIERENATILNAALFKVIAATSDGFEKALEQEGIEHAEIYLCQNDGTLMSLNYARQFPILTIACGPTNSIRGASYLAGLKDAMVLDVGGTTSDIGVLTDGFPRESSLAVDVGGVRTNFRMPDIISIGLGGGSIVREKDGDITIGPDSVGYRISEEALVFGGKTMTTTDIAVRLGMAEIGNPELVAHIPTDFAEKAYKKIADMTEDAIDKMKTSSGSVSLVLVGGGSMIIPDEISGVAQIFRDKNGPVANAIGASISQISGQYEQIYIYSQIEREEALQDAEQKAREQATLAGAVTDSIEVVEVEEIPLAYHPGNATRLRVKVVGDLV”: “not soluble”; “INQPVIETERFDLRPLRKSDMGLIEHYARDERVARMTTSIPHPLPPGMAEGFVARAMSEERTEDVWAMDATRDGGPELMGLISLERMDRNQSEVGYWVAPVFWNTGIASMAVEALVNANPLGNATMFASVFQDNPASARVLTHCGFQYLGDAESYSVARDAAVPTWTYSRKL”: “soluble”.
The same measure for “MGSDKIHHHHHHMLNFSLTPNAKILSKDADSYPYMYRNYPFLRPWVDSLKQVNALKDTFIINPQGIQLHAFYITAPAPTSKTAVIVHGYTDNAIRMFMIGYLYNRDLGYNILLPDLQHQGESEGRAIQMGWKDRIDVLQWMNIANEIFGDSTQMVVHGISMGGATTMMVSGEKQQPYVKCFVEDCGYTSVWDEFSHELKSSFHLPAFPLMYTTSWLCEKKYGWNFKEASSLKQVEKCELPMLFIHGDKDTYVPTWMVYPLYEAKPEPKELWIVPGAAHALSYKENKQEYTDKVRDFVGRYIH”: “not soluble”; for “MGSDKIHHHHHHMVLALNYNMHGVNIRSENAAKPHTMPSRYLCEYIRSIEKNGHALDFGCGKLRYSDELISKFDEVTFLDSKRQLEREQIIRGIKTKIIDYVPRYYKNANTVAFEDVDKIIGGYDFILCSNVLSAVPCRDTIDKIVLSIKRLLKSGGETLIVNQYKSSYFKKYETGRKHLYGYIYKNSKSVSYYGLLDELAVQEICSSHGLEILKSWSKAGSSYVTVGSCNAI”: “not soluble”.
